Experimental data published in US20250325643A1 (Genmab, published 2025).

What was measured:
[1] = molecular target: T1, human CD27-A59T variant expressed on transiently transfected HEK293F cells (human, UniProt P26842 20-260); assay: flow cytometry on HEK293F cells transiently transfected with human CD27-A59T, PE-labelled goat anti-human IgG, median MFI PE
T1 sequence: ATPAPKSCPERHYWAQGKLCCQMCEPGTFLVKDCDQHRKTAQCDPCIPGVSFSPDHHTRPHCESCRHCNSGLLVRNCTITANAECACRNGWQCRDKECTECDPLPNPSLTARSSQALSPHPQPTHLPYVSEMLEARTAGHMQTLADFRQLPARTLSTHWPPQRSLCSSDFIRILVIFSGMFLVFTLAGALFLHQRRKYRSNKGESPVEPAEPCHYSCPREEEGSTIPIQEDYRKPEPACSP
Method: Approximately 19% of the human population expresses a natural CD27 variant harboring an A59T mutation in the extracellular domain (SEQ ID NO. 2). […] Non-binding antibody IgG1-b12-FEAL was used as a negative control antibody. […] After incubation, antibodies were PE-labeled with polyclonal goat anti-human IgG. Binding was analyzed on a FACSCelesta flow cytometer (BD) and FlowJo software. Data were processed and visualized using GraphPad Prism v.8. *N.B. IgG1-CD27-A, -B and -C carried mutations F405L-L234F-L235E-D265A in the IgG Fc domain, which are functionally irrelevant in the context of this experiment.

[2] = molecular target: T2, human CD27 expressed on cells (T cells, transfected HEK293F cells, Daudi cells, NFκB-luc2/CD27 Jurkat … (human, UniProt P26842 20-240)); assay: flow cytometry on T cells in human PBMC (endogenous CD27), PE-labelled goat anti-human IgG, median MFI PE
T2 construct: also called TNFRSF7
T2 sequence: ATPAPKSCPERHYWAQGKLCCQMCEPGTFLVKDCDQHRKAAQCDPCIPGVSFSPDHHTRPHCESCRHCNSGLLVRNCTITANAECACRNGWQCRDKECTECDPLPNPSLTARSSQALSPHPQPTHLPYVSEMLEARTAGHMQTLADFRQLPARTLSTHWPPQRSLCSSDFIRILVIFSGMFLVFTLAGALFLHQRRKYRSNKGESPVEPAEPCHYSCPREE
Method: (§1) Non-binding control antibody IgG1-b12-FEAR was used as negative control antibody. *N.B. IgG1-CD27-A, -B, -C, -D and -E carried mutations F405L-L234F-L235E-D265A in the IgG Fc domain, which are functionally irrelevant in the context of this experiment.
(§2) Cells were seeded in 96-wells plates (100,000 cells per well; Greiner Bio-one, Cat #650180) for sequential incubations, with washing steps in between with FACS buffer, consisting of PBS (Lonza, Cat #BE17-517Q)+1% BSA (Roche, Cat #10735086001)+0.02% Sodium Azide (Bio-World, Cat #41920044-3). The following incubations were applied: antibody concentration series (0.0001-10 μg/mL final concentration) for 30 min at 4° C.; live/dead marker FVS510 (BD, Cat #564406, diluted 1:1,000 in PBS) for 20 min at RT; PE-labeled polyclonal goat anti-human IgG (Jackson Immuno Research, Cat #109-116-098, diluted 1:500) for 30 min at 4° C.; and anti-CD3 antibody for T-cell identification (anti-human CD3: BD, Cat #555335, diluted 1:10; anti-cyno CD3: Miltenyi, Cat #130-091-998, diluted 1:10) for 30 min at 4° C. All samples were analyzed on a FACSCelesta flow cytometer (BD) and FlowJo software. Data were processed and visualized using GraphPad Prism.

[3] = molecular target: T3, cynomolgus monkey CD27 expressed on cells (cynomolgus monkey T cells, transfected HEK293F cells) (cynomolgus monkey, UniProt P26842 20-260 (human entry)); assay: flow cytometry on T cells in cynomolgus monkey PBMC (endogenous CD27), PE-labelled goat anti-human IgG, median MFI PE
T3 construct: also called cyno CD27
T3 chain: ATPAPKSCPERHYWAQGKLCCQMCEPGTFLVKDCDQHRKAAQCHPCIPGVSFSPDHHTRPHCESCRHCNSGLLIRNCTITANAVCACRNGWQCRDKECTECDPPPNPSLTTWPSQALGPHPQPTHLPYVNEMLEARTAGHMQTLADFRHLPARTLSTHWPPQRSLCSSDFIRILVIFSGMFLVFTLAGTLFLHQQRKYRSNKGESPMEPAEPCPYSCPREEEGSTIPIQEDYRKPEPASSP
Method: as §1, §2

[4] = molecular target: T3, cynomolgus monkey CD27 expressed on …; assay: flow cytometry on HEK293F cells transiently transfected with cynomolgus monkey CD27, PE-labelled goat anti-human IgG, median MFI PE
Method: as §1, §2

[5] = molecular target: T2, human CD27 expressed on cells (T cells, …); assay: flow cytometry on HEK293F cells transiently transfected with human CD27, PE-labelled goat anti-human IgG, median MFI PE
[6] = molecular target: T4, recombinant His-tagged human FcγRIa (Sino Biological, Cat #10256-H08S-B) (human, UniProt P12314 16-288); assay: SPR (Biacore): His-tagged FcγRIa captured on an anti-His chip, antibody injected; resonance units against antibody concentration
T4 construct: Bought protein; not shown: His tag
Method: Binding of IgG1-CD27-A-P329R-E345R to human FcγR variants was analyzed using a Biacore surface plasmon resonance (SPR) system and compared to an anti-HIV gp120 antibody IgG1-b12 (ctrl). Biacore Series S Sensor Chips CM5 (Cytiva, Cat #29104988) were covalently coated with anti-His antibody using amine-coupling and His capture kits (Cytiva, Cat #BR100050 and Cat #29234602) according to the manufacturer's instructions. […] After three cycles of buffer, antibody samples were injected for 36 cycles to generate binding curves using antibody ranges of 0-3,000 nM for FcγRI and 0-10,000 nM for the other FcγRs. Each sample that was analyzed on an FcR-coated surface (Active Surface) was also analyzed on a parallel flow-cell without FcR (Reference Surface), which was used for background correction. Dissociation from the anti-His-coated surface was performed by regeneration of the surface using 10 mM Glycine-HCl pH 1.5 (Cytiva, Cat #BR100354). Sensograms were generated using Biacore Insight Evaluation software (Cytiva) and a four-parameter logistic (4PL) fit was applied to calculate relative binding of IgG1-CD27-A-P329R-E345R against the reference sample (ctrl).

[7] = molecular target: T2, human CD27 expressed on cells (T cells, …); assay: flow cytometry on CD4+ T cells in human PBMC, FITC-conjugated goat anti-human IgG F(ab')2, median FITC
Method: Binding of IgG1-CD27-A-P329R-E345R to CD27 on human healthy donor T cells was characterized in more detail using flow cytometry. Anti-HIV gp120 antibody variant IgG1-b12-P329R-E345R was used as non-binding control antibody (ctrl). Human PBMCs were isolated from buffy coats obtained from human healthy donors. PBMCs (1×10⁵ cells/well) in FACS buffer were added to polystyrene 96-well round-bottom plates (Greiner bio-one, Cat #650101) and pelleted by centrifugation at 300×g for 3 min at 4° C. The cells were resuspended in 50 μL/well serial antibody dilutions in FACS buffer (range 0.0015 to 10 μg/mL in 3-fold dilution steps) and incubated for 30 min at 4° C. Cells were pelleted, washed twice with FACS buffer and incubated in 50 μL/well with FITC-conjugated secondary antibody (FITC AffiniPure F(ab′)₂ fragment goat anti-human IgG, F(ab′)₂ fragment specific, Jackson ImmunoResearch, Cat #109-096-097, diluted 1:100) for 30 min at 4° C. in the dark. […] The samples were measured by flow cytometry on an LSRFortessa (BD) flow cytometer and analyzed using FlowJo software. Binding curves were analyzed using non-linear regression (sigmoidal dose-response with variable slope) using GraphPad Prism 8 software.

[8] = molecular target: T5, human FcγRIa on monocyte-derived macrophages (M0, M1, hMDM) (human, UniProt P12314 16-374); assay: flow cytometry on M0 monocyte-derived macrophages, PE-labelled goat anti-human IgG
T5 construct: whole, on cells; The macrophages also express FcγRII and FcγRIIIa

[9] = molecular target: T6, human C1q (from normal human serum) (human, UniProt P02745 23-245; P02746 28-253; P02747 29-245); assay: flow cytometry: human T cells opsonised with the antibody, 20% normal human serum as source of C1q, FITC-labelled rabbit anti-human C1q
T6 construct: 20% normal human serum was the source of C1q
T6 sequence (P02745 23-245 limits assumed, chain 1 of 3): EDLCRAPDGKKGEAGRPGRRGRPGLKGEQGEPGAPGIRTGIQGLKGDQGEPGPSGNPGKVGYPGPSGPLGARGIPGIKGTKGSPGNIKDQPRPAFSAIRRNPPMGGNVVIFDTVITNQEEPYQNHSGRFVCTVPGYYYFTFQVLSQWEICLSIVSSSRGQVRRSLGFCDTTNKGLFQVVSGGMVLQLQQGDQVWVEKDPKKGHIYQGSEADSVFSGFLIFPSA
T6 sequence (P02746 28-253 limits assumed, chain 2 of 3): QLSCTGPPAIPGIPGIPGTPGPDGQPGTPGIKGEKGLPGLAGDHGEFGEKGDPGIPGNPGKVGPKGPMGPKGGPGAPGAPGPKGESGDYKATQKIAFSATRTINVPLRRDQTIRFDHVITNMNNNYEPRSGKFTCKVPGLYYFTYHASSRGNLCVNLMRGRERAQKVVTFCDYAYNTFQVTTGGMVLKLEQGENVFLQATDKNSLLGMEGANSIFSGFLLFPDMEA
T6 sequence (P02747 29-245 limits assumed, chain 3 of 3): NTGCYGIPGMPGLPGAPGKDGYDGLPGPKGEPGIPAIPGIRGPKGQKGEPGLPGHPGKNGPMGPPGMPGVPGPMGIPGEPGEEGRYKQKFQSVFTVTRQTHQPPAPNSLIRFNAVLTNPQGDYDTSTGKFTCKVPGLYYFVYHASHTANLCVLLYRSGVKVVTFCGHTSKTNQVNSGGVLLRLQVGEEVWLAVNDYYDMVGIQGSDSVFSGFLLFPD

T5 sequence (P12314 16-374): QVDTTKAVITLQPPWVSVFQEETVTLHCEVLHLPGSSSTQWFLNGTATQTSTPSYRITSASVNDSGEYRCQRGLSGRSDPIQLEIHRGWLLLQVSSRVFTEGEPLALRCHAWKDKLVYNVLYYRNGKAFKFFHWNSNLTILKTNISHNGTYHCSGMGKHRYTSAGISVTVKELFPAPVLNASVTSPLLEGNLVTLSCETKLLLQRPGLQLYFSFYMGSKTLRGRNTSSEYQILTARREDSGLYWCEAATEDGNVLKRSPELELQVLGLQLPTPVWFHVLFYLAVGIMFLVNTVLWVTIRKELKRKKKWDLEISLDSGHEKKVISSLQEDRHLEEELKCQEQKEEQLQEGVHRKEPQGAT
T4 sequence (P12314 16-288 limits assumed, stated change not applied): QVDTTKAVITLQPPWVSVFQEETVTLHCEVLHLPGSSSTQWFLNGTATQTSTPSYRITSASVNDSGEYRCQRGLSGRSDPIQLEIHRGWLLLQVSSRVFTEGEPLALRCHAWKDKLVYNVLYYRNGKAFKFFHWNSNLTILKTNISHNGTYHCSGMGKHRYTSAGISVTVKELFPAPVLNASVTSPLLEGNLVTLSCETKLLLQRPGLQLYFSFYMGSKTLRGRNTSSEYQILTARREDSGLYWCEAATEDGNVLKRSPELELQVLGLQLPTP

B1: IgG1-CD27-A carrying mutations F405L-L234F-L235E-D265A in the IgG Fc domain (antibody, V domains shown)
VH: QVQLMQSGSELKKPGASVKVSCRASGYTFTTYAMNWVRQAPGQGPEWMGWINTNTGNPTYAQGFTGRFVFSLDTTVTTTYLQISSLKAEDTAVYFCAREAGSFDYWGQGTLVTVSS
VL: QSALTQPASVSGSPGQSITISCTGTSSDVYYYNYVSWYQQHPGRAPKLVIYDVSNRPSGVSNRFSGSKSGNTASLTISGLRAEDEADYYCSSYTVNRVWVFGGGTKLTVL
- EC50 (read off the curve) [1]: ~0.2 µg/mL
- EC50 (read off the curve) [2]: ~0.04 µg/mL
- EC50 (read off the curve) [3]: ~0.04 µg/mL
- EC50 (read off the curve) [4]: ~0.06 µg/mL
- EC50 (read off the curve) [5]: ~0.1 µg/mL

B2: IgG1-b12 (wild-type IgG1 Fc) (antibody)
VH: not shown
VL: EIVLTQSPGTLSLSPGERATFSCRSSHSIRSRRVAWYQHKPGQAPRLVIHGVSNRASGISDRFSGSGSGTDFTLTITRVEPEDFALYYCQVYGASSYTFGQGTKLERKRTVAAPSVFIFPPSDEQLKSGTASVVCLLNNFYPREAKVQWKVDNALQSGNSQESVTEQDSKDSTYSLSSTLTLSKADYEKHKVYACEVTHQGLSSPVTKSFNRGEC
notes: also called WT IgG1-b12; ctrl
- EC50 (read off the curve) [6]: ~60 nM

B3: IgG1-b12-P329R-E345R (antibody)
VH: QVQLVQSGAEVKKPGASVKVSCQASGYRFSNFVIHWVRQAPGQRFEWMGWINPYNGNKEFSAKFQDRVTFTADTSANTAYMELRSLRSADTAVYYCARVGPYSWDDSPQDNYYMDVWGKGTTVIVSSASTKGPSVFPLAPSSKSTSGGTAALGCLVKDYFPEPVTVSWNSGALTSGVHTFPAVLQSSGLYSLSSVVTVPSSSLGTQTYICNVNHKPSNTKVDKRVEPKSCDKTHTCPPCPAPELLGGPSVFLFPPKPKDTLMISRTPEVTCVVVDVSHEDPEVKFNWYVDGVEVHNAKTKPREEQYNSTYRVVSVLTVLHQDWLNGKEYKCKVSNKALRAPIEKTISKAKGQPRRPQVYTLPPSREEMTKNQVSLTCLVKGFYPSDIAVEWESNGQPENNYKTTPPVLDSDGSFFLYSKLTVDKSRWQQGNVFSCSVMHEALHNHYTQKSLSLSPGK
VL: EIVLTQSPGTLSLSPGERATFSCRSSHSIRSRRVAWYQHKPGQAPRLVIHGVSNRASGISDRFSGSGSGTDFTLTITRVEPEDFALYYCQVYGASSYTFGQGTKLERKRTVAAPSVFIFPPSDEQLKSGTASVVCLLNNFYPREAKVQWKVDNALQSGNSQESVTEQDSKDSTYSLSSTLTLSKADYEKHKVYACEVTHQGLSSPVTKSFNRGEC
notes: also called ctrl; IgG1-b12-E345R-P329R
- binding result [7]: no binding (tested: 10 µg/ml)
- binding result [8]: no binding (tested: 30 µg/mL)

B4: IgG1-CD27-A (wild-type IgG1 Fc) (antibody)
VH: not shown
VL: QSALTQPASVSGSPGQSITISCTGTSSDVYYYNYVSWYQQHPGRAPKLVIYDVSNRPSGVSNRFSGSKSGNTASLTISGLRAEDEADYYCSSYTVNRVWVFGGGTKLTVLGQPKAAPSVTLFPPSSEELQANKATLVCLISDFYPGAVTVAWKADSSPVKAGVETTTPSKQSNNKYAASSYLSLTPEQWKSHRSYSCQVTHEGSTVEKTVAPTECS
notes: Human IgG1 heavy chain backbone, wild-type Fc; also called WT IgG1-CD27-A; IgG-CD27-A
- binding result [9]: no binding (tested: 15 µg/mL)

B5: IgG1-b12-FEAL (antibody, V domains shown)
VH: QVQLVQSGAEVKKPGASVKVSCQASGYRFSNFVIHWVRQAPGQRFEWMGWINPYNGNKEFSAKFQDRVTFTADTSANTAYMELRSLRSADTAVYYCARVGPYSWDDSPQDNYYMDVWGKGTTVIVSS
VL: EIVLTQSPGTLSLSPGERATFSCRSSHSIRSRRVAWYQHKPGQAPRLVIHGVSNRASGISDRFSGSGSGTDFTLTITRVEPEDFALYYCQVYGASSYTFGQGTKLERK
notes: also called ctrl
- binding result [1]: no binding (tested: 10 µg/mL)
